Target: LRIM1 (An. gambiae)
Assay: non-reducing SDS-PAGE western blot

stoichiometry N: 2
Substance: LRIM1 (natural protein)
